Assay results as given in the nanobody polyreactivity screen of Harvey et al. (2022).

Test: yeast display, Sf9 membrane polyspecificity reagent, FACS + sequencing; frameworks hold sequencing errors
In short: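 Nanobodies from a synthetic yeast display library (Saccharomyces cerevisiae BJ5465), induced 36–48 hours with galactose, were stained 1 hour at 4 °C with 10% biotinylated, detergent-solubilized Sf9 membrane reagent, enriched on streptavidin microbeads, then FACS-sorted. Anti-HA (expression) and streptavidin (reagent binding) fluorescence set low and high (top ~1%) gates. Polyreactivity labels come from the gate of origin. Genes were colony-PCR amplified, MiSeq 2 × 250 sequenced and filtered by CDR length.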

| Sequence | polyreactivity (PSR sort gate) |
| --- | --- |
| QVQLVESGGGLVQAGGCLRVSCAASGFISGYYAMGGYSQAPGIERELVAAIDWIGGSTYYAESVKGRFTISRDNAKNTEYFQMNSLKPEDTAVYDCAASYKYGSSWGDGYWGQGTQVTVSS | low polyreactivity |
| QVQLVESGGGLVQAGGSLRLSCAASGFTFGSYAMGWYRQAPGKERELVAAITRSGGGTYYADSVKGRFTISRDNAKNTVYLQMNSLKPEDTSVYYCAAGALQRGVYGFGYWGQGTQVTVSS | high polyreactivity |
| QVQLVESGGGLVQAGCSLRLSCAASGITFTEYAMGWSRQAPGKERELGATISYGGGITYYADSVKGRFTISRDNAKNTVYLQMNSLKPEDTAVYYCAADGLSQVQRGMDYWGQGTQVTVSS | low polyreactivity |
| QVQLVESGGGLVQAGGSLRLSCAASGRIFGPNDMGWYRQAPGKERELVAAITDSGDITYYADSVKGRFTISRDIAKNSVYLQMNSLKPEDTAVYYCAADHTYENEYWGQGTQVTVSS | low polyreactivity |
| QVQLVESGGGLVQAVGRLRLSCAASGRTFYYNGMGWYRQAPGKERELVAAISSGGTTSYADSVKGRFTISRDNAKNTVYLQMNSLKPEDTAVYYCNVYDKAPAYDYWGQGTQVTVSS | low polyreactivity |
| QVQMQESGGGLVQAGGTLRLSCAASGSFSADEDMGWYRQAQGKEREFVAGISVGGNTNYADSVKGRFTISRENAKNTVYLQINSLKPEDTAVYYCAVLQDVYDALDYWAQGTQVTVSS | high polyreactivity |
| QVQLVEAGGGLVQAGGSLRLTCAASVRTFTGYAMGCYRQAPGTERELVAAMTLSGGSTYYADSVKGRFTISRDNAKNTVYLQMNSLKPEDTAVFYCAAKWWHFYPYDYWGQGTQVTVSS | high polyreactivity |
| QVQLVESGGGLVQAGGSLRLSCAASGIIFFDYAMGWYRQAPGKERELVAAITSSGGSTYYADSVKGRFTISRDNAKNTVYLQMNSLKPEDTAVYYCAAATRGSGRRNDYWGQGTQVTVSS | high polyreactivity |
| QVQLVESGGGLVQAGGSLRLSCAASGFTIDAYAMGWYRQAPGKDRELVAAISGSGGSTYYADSVKGRFTISRDNAKNTVYLQMNSLKPEDTALYYCAKDPGPYDYDYWGQGTQVTVSS | low polyreactivity |
| QVQIVESGGGLVQAGGSLRLSCAASGSTFYSYAMGWYRQAPGKERELVAAIDWSGDNTNYADSVKGRFTISRDNAKNTVYLQMKSLKPEDTAVYYCAAVYSYYRLYAYPAYYYWGQGTQVTVSS | low polyreactivity |
| QVQLVESGGGLVQAGGSLRLSCAASGSTFYRYAMGWYRQAPGKERELVASLTGSGGRTYYADSVKGRFTISRDNAKNTVYLQMNSLKPEDTAVYYCAARLYVRSVIGNAIVKYDYWGQGTQVTVSS | high polyreactivity |
| QVQLVESGGGLVQAGGSLRLSCAASGNIFWWNAMGWYREATRKERELVAAITSDSTTYYADSVKGRFTISRDNAKNTVYLQMKSLKPEDTAVYYCAAYSYGGQGVDYGYWGQGTQVTVSS | low polyreactivity |
| QVQLVESGGGLVQAGGSLRLSCAASGSIFSYNAMGWNRQAPGKESELVAAISWSGGRTYYADSVKGRFTISRDNAKNTVYLQMNSLKPEDTAVYYCNAQYRLYSEFNYWGQGTQVTVSS | high polyreactivity |
| QVQLVESGGGLVQAGGSLRLSCAASGRTFSQYAMGWYRQPPGKERELVASISWSGGSTYYADSVKGRFTISRDNAKNTVYLQMNSLKPEDTAVYYCAAVGKGSARSSYPVLYDYWGQGTQVTVSS | low polyreactivity |
| QDQLVESGGGLVQAGGSLRLSCAASGFTFRDYTRGWYRQAPGKERELVAAISLSGGSTYYADSVKGRFTISRDNAKNTVYFQMNSLKPEDTAVYYCAAGYLLWRTWDYGAGHNFWGQGTQVTVSS | high polyreactivity |
| QVQLVESGGGLDQARGSLRLSCAASGSIFGENAMGWYRQAPGKERELVAAISTSGGTTYYADSVKGRFTISRDNAKNTVYLQMNSLKPEDTAVYYCAKPYTSFSPYDYWGQGTQVTVSS | low polyreactivity |
| QVQLVESGGGLVQAGGSLRLSCAASGFIFSLYAMGWYRQAPGTERELVAAISKRGGSTNYADSVKGRFTISRDNAKNTVYLQMNSLKPEDTAVYYCAKARPGFLYDHWGQGTQVTVSS | high polyreactivity |
| QVQLVESGGGLVQAGGSLRLSCAASGFIFLVYAMGWYRQAPGKERELVAAISASGGRTYYADSVKGRFTISRDNAKNTVYLQMNSLKPEYTAVYYCARLLPTPGKPILDYWGQGTQVTVSS | low polyreactivity |
| QVQLVESGGGLVQAGGSLRLSCAASGSTFVGNAMGWYRQAPGKERELVAGISSGGSSNYADSVKGRFTISRDNAKNTVYLQMNSLKREDTAVYYCNAVPGVGEMDYWGQGTQVTVSS | low polyreactivity |
| QVQLVESGGGLVQAGGSLRLSCAASGFTFRWYAMGWYRQAPGKETELVAAISRDGSTNYADSVKGRFTISRDNAKNTVYLQMNSLKPEDTAFYYCATDSYPWGRSTGWRKQKGYYWGQGTKVTVSS | high polyreactivity |
| QVQLVESGGGLVQAGGSLRLSCAASGFTFRTYAMGWYRQAPGKERELVAAINTGGGTNYADSVKGRFTISRDNAKNTVYLQMNSLKPEDTAVYFCNAVHYYYYYWYSLYDSWGKGTQVTVSS | high polyreactivity |
| QVQLVESGGGLVQAGGSLRLSCAASGIPFKGYAMGWYRQAPGQERELVAASNSRGGTYADSVKGRFTISRDNAKNTVYLQRNSLKPEDTAVYYCGVSAVRPLPLDSGYDYWGQGSQVTVSS | low polyreactivity |

| Sequence | polyreactivity (PSR sort gate) |
| --- | --- |
| QVQLVESGGGLVQAGGSLRLSCAASGRIFSRNAMGWYRQAPGKERELVAAITSGGSTYYADSVKGRFTISRDNAKNTVYLQMNSLKPEDTAVFYCAKRLTYYSWYHRYDYWGQGTQVTVLS | high polyreactivity |
| QVQLVESGGGLVQAGGSLRLSCAASGSIFQSYSMGWYRQAPGKERELVAAISRGGSTYYADSVKGRFTISRDNAKNTVYLQMNSLKPEDTAVYYCAAGSGGGKYLYYYWGQGTQVTVSS | low polyreactivity |
| QVQLVESGGGVVQAGGSLRLSCAASGSIFYVYSMGWYRQAPGKERELVAAISRSGTNTYYADSVKGRFTISRDNAKNTVYLQMNSLKPEDTAVYYCNADAAYLVTQPYDDNYDYWGQGTQVTVSS | low polyreactivity |
| QVHLVESGGGLVQAGGSLRLSCAASGFTFVFYTMGWYRPAPGKERELVAAISHTGDSTYYADSVKGRFTISRDNAKNTVYFQMNSLKPEDTAVYYCATDLYTADPDPSPTYKFEYWGQGTQVTVSS | low polyreactivity |
| QVQLVESGGGIVQAGGSLRLSCAAAGFTFWQYAMGWYRQAPGKERELVAAITWDGGSTYYADSVKGRFTISRDYAKNTVYLQMNSLKPEDTAVYYCAKLFGGTYYEYDYWGQGTQVTVSS | low polyreactivity |
| QVQLVESGGGLVQAGGSLRLSCAASGNIFPYYAMGWYRQAPGKERELVASITWSGGRTYYADSVKGRFTISRDNAKNTVYLQMNSLKPEDTAVYYCAKEHHRTGQGRDYDYWGQGTQVTVSS | low polyreactivity |
| QVQLVESGGGLVQAGVSLRLSCAASGRIFRFYAMGWYRQAPGIDRELVATISRSGGSTYYADSVKGRFTISRDNAKNNAYLQMNSLKPEDTAVYYCAAQRLHDGDYWVQGTQVTVSS | high polyreactivity |
| QVNLVETGGGLVQAVCSLRLSCAASGSIFGIYTMGWYRQAPGKERELVAAINSGGSTIYADSVKGRFTISRDNAKNTVYLQMNSLKPEDSAVYYWIAYIHPPGPRVYSREYDYWGQGTQLTVSS | low polyreactivity |
| QVHLVESGGGLVQAAGSLRLSCAASGRIFSYNAMGWYRPAPGKERELVAAISSDGSTYYADSVKGRFTISRDNAKNTVYLQMNSLKPEDTAVYYCAASQVVWFDYTTAQVGSYKVNYWGQGTQVSVSS | low polyreactivity |
| QVQLVESGGGLVQAGGSLRLSCAASGRIFYAYAMGGYRQAPGKERELVASISGGGSTDYADSVKGRFTISRDNAMNTVYLQMNSLKPEDTAVYDCAAKRISYYSYNFDYWGEGTQVTVSS | high polyreactivity |
| QVQLVESGGGLVQAGGILRLSCAASGSTFGYYTMGWYRQAPGKEREFVAAITRRGGSTYYADSVKGRFTISRDNAKNTVYLQMNSLKPEDTAVYYCAAESRYQPHYGYWGQGTQVTVSS | high polyreactivity |
| QVQLVESGGGLVQAGGSLRLSCAASGSTFWYYTMGWYRQAPGKERELVAGITSGGSTYYADSVKGRFTISRDNAKNTVYLQMNSLKPEDTAVYYCAKRYYGRGYYYWGQGTQVTVSS | high polyreactivity |
| QVQLVESGGGLVQAGGSLRLSCAASGSIFGSNGMGWSRQAPGKERELVAAISSGDSTNYADSVKGRFTISRDNAKNTVYLQMNSLKPEDTAVYSCERWGLGDYWGQGTQVTVSS | low polyreactivity |
| QVQLVESGGGLVHEGGSLRLSFAASGPTFYRYTMGWYRQAPGKERELVATITGGGSTNYADSVKGRFTISRDNAKNTVYLQMNSLKPEDTAVYYCARAVVQSRGPPRYKTPYDYWGQGTQVTVSS | low polyreactivity |
| QDQLVESGGGLVQAGGSLRLSCAASGRIVSDYAMGWYRQAPGKERELVARISRSDGSSYYADSVKGRFTISRDNAKNTVYLQMNSLKPEDTAVYYCAAQWTDGRRDHWWDKGFYYWGQGTQVTVSS | low polyreactivity |
| QVQLVESGGGLVQAGGSLRLSCAASGFTFYDYAMGWYRQAPGKERELVAVITRRGGSTYYADSVKRRFTISRDNAKKTVDLQMNSLKPEDTAVYDCAADWRGWSFVRGDDYWGHGTQVTVSS | high polyreactivity |
| QVQLVESGGGLVQAGGSLRLSCAASGRIFQYYAMGWYRPAPGKEREFVAAISDSGSNTYYADSVMGRFTISRDNAKNTVYLQMNSLKPEDTAVYYSAALYATRALFYYWGQGTQGTVSS | low polyreactivity |
| QVQLVESGGGLVQAGGSLRLSCAASGFIFSPNAMGWYRQAPGKEREFVAAIRYSGTSTSYADSVKGRFTISRDNAKNTVYLQMNSLKPEDTAVYYCAAGRSNSYSPRRRVTYGYNYWGQGTQVTVSS | high polyreactivity |
| QVQLVESGGGLVQAGGSLRLSCAASGHIFTRNSMGWYRQAPGKERELVAAISRTGGSTYYADSVKGRFTISRDNAKNTVYLQMNSLKPEDTAVYDCAKRRQASEDYWGQGTQVTVSS | high polyreactivity |
| QVQLVESGGGLVQAGGSLRLSCAASGSTFQYYAMGWSRQAPGKERELVAAISYGGSRTYYADSVKGRFTISRDNAKNTVYLQMNSLKPEDTAVYYCAKEKYRALAPYYYWGQGTQVTVSS | high polyreactivity |
| QVQLVESGGGLVQAGGSLRLSCAASGRTFGFYAMGWYRQAPGKERELVATISSSGGSTYYADSVKGRFTISRDNAKNTVYLQMNSLKPEDTAVYYCAKVVSGWRSHYIGDYWGQGTQVTVSS | low polyreactivity |
